# Read-outs that look alike come from different tables or passages of the source.
# Assays:
# [1] = target: T1, 人单核细胞白血病细胞(THP-1)表面LILRB4 (human, UniProt Q8NHJ6 22-448); assay: cell-based or functional assay
# [2] = target: T1, 人单核细胞白血病细胞(THP-1)表面LILRB4; assay: cell-based or functional assay; remark: listed apart in the source
Binder,"IC50, inhibition of ARG1 secretion by THP-1 cells in the presence of ApoE (arginase activity kit) [1] [µg/mL]","IC50, inhibition of ARG1 secretion by THP-1 cells in the presence of ApoE (arginase activity kit) [2] [µg/mL]"
MB-Ⅰ 鼠源抗LILRB4单克隆抗体 (mouse IgG1/Cκ) (antibody) heavy: QVQLQESGAELVKPGASVKLSCKASGYTFTNYWMHWVKQRPGQGLEWIGEINPSNGRTNYNEKFKTKATLTVDKSSSTAYMQLSSLTSEDSAVYYCARWGQLGLREGYYAVDYWGQGTSVTVSSAKTTPPSVYPLAPGSAAQTNSMVTLGCLVKGYFPEPVTVTWNSGSLSSGVHTFPAVLQSDLYTLSSSVTVPSSTWPSETVTCNVAHPASSTKVDKKIVPRDCGCKPCICTVPEVSSVFIFPPKPKDVLTITLTPKVTCVVVDISKDDPEVQFSWFVDDVEVHTAQTQPREEQFNSTFRSVSELPIMHQDWLNGKEFKCRVNSAAFPAPIEKTISKTKGRPKAPQVYTIPPPKEQMAKDKVSLTCMITDFFPEDITVEWQWNGQPAENYKNTQPIMDTDGSYFVYSKLNVQKSNWEAGNTFTCSVLHEGLHNHHTEKSLSHSPG light: DIVMTQSPSSLSASLGDRVTISCRASQDISNYLNWYQQKPDGTVKLLIYYTSRLHSGVPSRFSGSGSGTDYSLTISNLEQEDIATYFCQQGNTLPPTFGGGTKLEIKADAAPTVSIFPPSSEQLTSGGASVVCFLNNFYPKDINVKWKIDGSERQNGVLNSWTDQDSKDSTYSMSSTLTLTKDEYERHNSYTCEATHKTSTSPIVKSFNRNEC,46,–
MA-Ⅰ 鼠源抗LILRB4单克隆抗体 (mouse IgG1/Cκ) (antibody) heavy: not shown light: DIVMTQTTLSLPVSPGDQASISCRSSQSLAHSNGNTYLHWYLQKPGQSPKLLIYKVSNRFSGVPDRFSGSGSGTDFTLKISRVEAEDLGVYFCSQSTLVPTFGGGTKLEIKADAAPTVSIFPPSSEQLTSGGASVVCFLNNFYPKDINVKWKIDGSERQNGVLNSWTDQDSKDSTYSMSSTLTLTKDEYERHNSYTCEATHKTSTSPIVKSFNRNEC,23.9,–
"人源化抗LILRB4单克隆抗体HA-Ⅱ (human IgG1/Cκ) (antibody, V domains shown) VH: EVQLVESGGGLVKPGGSLRLSCAASGFTFSSYTMSWVRQAPGKGLEWVATISSGGTYTYYPDSVKGRFTISRDNAKNSLYLQMNSLRAEDTAVYYCARDGYDGFDYWGQGTTVTVSS VL: DIVMTQTPLSLSVTPGQPASISCRSSQSLAHSNGNTYLHWYLQKPGQSPQLLIYKVSNRFSGVPDRFSGSGSGTDFTLKISRVEAEDVGVYFCSQSTHVPTFGGGTKVEIKR",–,250
"人源化抗LILRB4单克隆抗体HA-Ⅰ (human IgG1/Cκ) (antibody, V domains shown) VH: EVQLVESGGGLVKPGGSLRLSCAASGFTFSSYTMSWVRQAPGKGLEWVSTISSGGTYTYYPDSVKGRFTISRDNAKNSLYLQMNSLRAEDTAVYYCARDGYDGFDYWGQGTTVTVSS VL: DIVMTQTPLSLSVTPGQPASISCRSSQSLAHSNGNTYLHWYLQKPGQSPQLLIYKVSNRFSGVPDRFSGSGSGTDFTLKISRVEAEDVGVYYCSQSTHVPTFGGGTKVEIKR",–,31.2
"人源化抗LILRB4单克隆抗体HA-Ⅲ (human IgG1/Cκ) (antibody, V domains shown) VH: EVQLVESGGGLVKPGGSLRLSCAASGFTFSSYTMSWVRQAPGKGLEWVATISSGGTYTYYPDSVKGRFTISRDNAKNSLYLQMNSLRAEDTAVYYCTRDGYDGFDYWGQGTTVTVSS VL: DIVMTQTPLSLSVTPGQPASISCRSSQSLAHSNGNTYLHWYLQKPGQSPKLLIYKVSNRFSGVPDRFSGSGSGTDFTLKISRVEAEDVGVYFCSQSTHVPTFGGGTKVEIKR",–,98.5

# Source: patent CN116203146A (BEIJING DONGFANG BIOTECH CO LTD, dated 2023)
